B1: recombinant SurE protein (peptide cyclization enzyme derived from Streptomyces albidoflavus NBRC 12854) (protein)
chain: VGAEGAERDAVGALFEELVREHRVTGAQLSVYRDGALSEYATGLASVRTGEPVTPRTGFPFGSVTKFLTAELVMQFVCDGDLDLDDPLAGLLPDLGRAAGPPLGTATVRQLLSHTAGVVDSIEYDEMRGPSYRRFAAACARQPALFPPGLAFSYSNTGYCLLGAVIEAASGMDWWTAMDSCLLRPLGIEPAFLHDPRPGQGGAARPVAEGHALRAGGERAEHVDHMASLSLAAAGGLVGSATDLVTAARPHLADRKTFAQHDLLPEDAVLAMRTCVPDAEPFGLADGWGLGLMRHGTGDGAWYGHDGAVGGASCNLRIHPDRSLALALTANSTAGPKLWEALVARLPEAGLDVGHYALPVPDSAPLAPDAGHLGTYANGDLELMVTHDAAGDLFLTRESYSDYRLSLHEDDLFVARSGEPGALPITGRFVREHPAGPVALLQYGGRAMHRL
B2: peptide cyclization enzyme from Goodfellowiella coeruleoviolacea NBRC 14988 (protein)
chain: VPNEQDLGSLLARLAERHRVPGAQLSVCHDSASVTVVTGRERHGAATPVTARSAFPLGSLTKPFTAALAMVLVADGDLDLDEPVAGYHPGVTLRRLLSHTAGLESNVDEQAAAGVPRRRWVTRYPARLAPEHPPGTVFSYSNVGYLLAGHLVEEVTGLDWAEAVESVLLRPLGITPAFVVGAAGSRGVVCGHVLTDDRVLPVAEQVMPEVEAPNGALALSSADLLAFAALFSANSPAPDVLDPATAALMCQDQLADVRVGPYGMADGWGLGWARYRGAGADWFGHDGTGDGTSCHLRFDPERGTAVALTTNGSTGAALWRELCAELAERHVLPPEWGREPGEATPVAGPPDGAGHYANGPAEFVVTRQDDDGLALVLDGAQAVPLTCLPDLRFQLRLGTTVLSGRFLRDPDTGGIDHIQVTGRLARRRQVTG
B3: peptide cyclization enzyme from Streptomyces noursei NBRC 15452 (protein)
chain: VHGDSADPAGYGAGDGSPLDLDLDRLARDCDVAGGQLAVHHHGVLETWEFGEEEPGAGRPVHSATAFPYGSTTKVCTATSVLQLVGDGDLDLDRPVREWLPEAGTVPEARRDHPALAATLRQLLSHTAGLPSDHDDADASSLRRWLTGFLAAPADARPAPGTFSYSNVGYGIAGRVVESVTGLPWYEAVRDYLLRPLGTAITALPAEPGSLPAGGLAGSAADLVRLGLLHIAEPGRPDLADPAALGEATRPTAGADPFGLADGWGPGLGHFGPAEDRWLGHDGTLDGATCHLRIHPRRGTVIALTTNSPTGQALWDAVVGALRDAGIDVGVYRPAPPPSLAQGGAPAGAAAFADCTGTYRNGDLAVTVGLDGPHLVLELPGGARELAEPLARRTFAARGAGAFLGRFAVDARTGAVHALQYSGRTLLRDTGRAHGARPH

Key:
[1] = molecular target: SB(L8F)-SNAC, peptide in which D-Leu at the C-terminus of SB-SNAC is substituted with D-Phe
[2] = molecular target: substrate peptide (SNAC body) shown in FIG. 4
[3] = molecular target: substrate peptide 3 (SB-SNAC), SNAC body indicated with 3 in FIG. 2a
[4] = molecular target: shorter peptide (7 amino acid residues, SNAC body)
[5] = molecular target: methyl ester of the compound indicated with 3 in FIG. 2a
[6] = molecular target: longer peptide (11 amino acid residues, SNAC body)
[7] = molecular target: substrate in which Ile at the N-terminus of the compound indicated in 3 of FIG. 2a is substituted with L-Trp
[8] = molecular target: SB(L8A)-SNAC, peptide in which D-Leu at the C-terminus of SB-SNAC is substituted with D-Ala

Protein	kcat/KM of the cyclization reaction relative to substrate 3 of FIG. 2a [1]	peptide cyclization reaction, HPLC and mass spectrometry (extracted ion chromatogram) [2]	peptide cyclization reaction, HPLC analysis of the product [3]	peptide cyclization reaction (data not shown) [4]	peptide cyclization reaction [5]	peptide cyclization reaction (data not shown) [6]	kcat/KM of the cyclization reaction relative to substrate 3 of FIG. 2a [7]	peptide cyclization reaction, HPLC [1]	peptide cyclization reaction, HPLC [3]	peptide cyclization reaction, HPLC [8]
B1	two to five times higher than the kcat/KM value obtained when the compound indicated with 3 in FIG. 2a was used as a substrate	a product having a molecular weight corresponding to the molecular weight (m/z 1038.8) of a cyclized product of Surugamide F (cyclic Surugamide F) was detected	cyclized the substrate peptide to give a cyclized peptide 1 (Surugamide B) as a single product	a cyclized product was observed to be obtained by the recombinant SurE	even when the methyl ester was used as a substrate, the same cyclized product as in the case of using the SNAC body was produced	a cyclized product was observed to be obtained by the recombinant SurE	two to five times higher than the kcat/KM value obtained when the compound indicated with 3 in FIG. 2a was used as a substrate			
B2								the two enzymes produced cyclized peptides from three substrates	the two enzymes produced cyclized peptides from three substrates	the two enzymes produced cyclized peptides from three substrates
B3								the two enzymes produced cyclized peptides from three substrates	the two enzymes produced cyclized peptides from three substrates	the two enzymes produced cyclized peptides from three substrates

Source: patent US20210139917
